Tests used:
[1] = tested on: mutant SOD mice (SOD1G93A); test: Ursolic acid treatment of ALS mouse model (grip test, rotarod); assay type: in vivo; conditions: ursolic acid 200 mg/kg daily over eight weeks
Experimental: In ALS mouse models, like mutant SOD mice (SOD1G93A)), ALS is diagnosed based on hanging wire grip test (where the latency of falling is measured in seconds), grip strength analysis, rotarod time trial test, where a decrease in time balanced on the rod correlates to disease positive mice. Weight is measured to determine hypotrophy of muscle mass over time. Low levels of serum serpinA1 proteins levels, serum protease inhibitor function, serum trypsin protein levels, and serum functional trypsin level correlates with ALS. Once the mice have been diagnosed with ALS, the mice are given daily treatments of ursolic acid (200 mg/kg) over the course of eight weeks. Levels of serum serpinA1 proteins, serum protease inhibitor function, serum trypsin protein, and serum functional trypsin are assessed over time monitoring for an increases. Grip test and rotarod times are assessed over time as a correlation for delay in disease progression.

[2] = target: T1, alpha1-protease inhibitor (Homo sapiens, UniProt P01009); conditions: cited from earlier work
T1 construct: a human protein has been isolated from pooled human serum samples and lyophilized; tissue Baxter / Takeda (Aralast NP); host or cells: pooled human serum / plasma
T1 sequence (P01009 25-418): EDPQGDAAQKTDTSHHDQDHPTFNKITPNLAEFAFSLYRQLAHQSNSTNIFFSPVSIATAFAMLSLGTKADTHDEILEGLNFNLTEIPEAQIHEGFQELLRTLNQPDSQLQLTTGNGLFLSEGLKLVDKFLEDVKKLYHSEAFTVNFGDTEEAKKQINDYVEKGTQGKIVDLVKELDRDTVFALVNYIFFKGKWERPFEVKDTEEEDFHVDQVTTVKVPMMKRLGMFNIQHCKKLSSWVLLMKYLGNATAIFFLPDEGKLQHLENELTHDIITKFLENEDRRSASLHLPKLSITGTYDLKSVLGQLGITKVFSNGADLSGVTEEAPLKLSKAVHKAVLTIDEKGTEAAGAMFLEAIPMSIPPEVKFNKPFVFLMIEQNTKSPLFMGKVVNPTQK

alpha-1 anti-trypsin = conditions: cited from earlier work; for augmenting blood and lung alpha-1 anti-trypsin levels compared with Prolastin / safety compared with Prolastin: basis of approval

Compound | performance (grip test, rotarod) versus non-treatment group [1] | specific activity [2] | augmenting blood and lung alpha-1 anti-trypsin levels compared with Prolastin (alpha-1 anti-trypsin) | safety compared with Prolastin (alpha-1 anti-trypsin) | safety record (alpha-1 anti-trypsin; marketed since 1988)
C[C@H]1[C@H](C)CC[C@]2(C(=O)O)CC[C@]3(C)C(=CC[C@@H]4[C@@]5(C)CC[C@H](O)C(C)(C)[C@@H]5CC[C@]43C)[C@H]12 [ursolic acid] | outperform the non-treatment group | – | – | – | –
Aralast NP: sterile, lyophilized preparation of human alpha-1 antitrypsin protein derived from large pools of human plasma | – | 0.55 mg active alpha1-protease inhibitor/mg of total protein | comparable to Prolastin | comparable to Prolastin | –
Glassia: FDA approved alpha-1 antitrypsin deficiency drug from Kamada Ltd. | – | – | comparable to Prolastin | comparable to Prolastin | –
Prolastin: alpha-1 antitrypsin augmentation therapy product from Grifols, marketed since 1988 | – | – | – | – | excellent safety record
Zemaira: FDA approved alpha-1 antitrypsin deficiency drug from CSL Behring | – | – | comparable to Prolastin | comparable to Prolastin | –

— patent US20230218637A1, “COMPOSITIONS AND METHODS FOR DIAGNOSING, PREVENTING, AND TREATING AMYOTROPHIC LATERAL SCLEROSIS IN PATIENTS WITH HYPOFUNCTIONAL ANTI-TRYPSIN ACTIVITY” (Motor Life Sciences, LLC, priority 2020, published 2023)
